Laboratory results from publication PMC9482650, “Quantitative fragmentomics allow affinity mapping of interactomes” (Nature Communications, 2022).
Positions count from the first letter of the chain named.

How the values were obtained:
Experiment in all cases: holdup assay
Design in all cases: key: below the threshold = too weak to quantify, mostly under pKd 3.1 to 4
SNTG2, Q9NY99 = molecular target: T1, SNTG2, Q9NY99
T1 sequence (Q9NY99 68-166, limits assumed, looked up): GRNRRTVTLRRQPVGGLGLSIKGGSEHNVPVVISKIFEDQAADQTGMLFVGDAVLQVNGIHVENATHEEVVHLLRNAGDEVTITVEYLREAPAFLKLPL

SCRIB_2, Q14160 = molecular target: SCRIB_2, Q14160
Chain of SCRIB_2, Q14160 (Q14160 857-960): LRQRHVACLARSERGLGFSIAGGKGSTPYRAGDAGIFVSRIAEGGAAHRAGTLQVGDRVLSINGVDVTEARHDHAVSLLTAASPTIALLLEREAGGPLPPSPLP

TJP3_3, O95049 = molecular target: T2, TJP3_3, O95049
T2 sequence (O95049 375-456, limits assumed, looked up): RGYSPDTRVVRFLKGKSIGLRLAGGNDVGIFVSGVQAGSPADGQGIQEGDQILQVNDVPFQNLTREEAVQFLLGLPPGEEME

LIN7C, Q9NUP9 = molecular target: T3, LIN7C, Q9NUP9
T3 sequence (Q9NUP9 88-185, limits assumed, looked up): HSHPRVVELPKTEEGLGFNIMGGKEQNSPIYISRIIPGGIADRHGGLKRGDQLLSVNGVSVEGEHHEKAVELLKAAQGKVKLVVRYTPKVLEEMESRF

NHERF4_1, Q86UT5-2 = molecular target: NHERF4_1, Q86UT5-2
Chain of NHERF4_1, Q86UT5-2 (Q86UT5 other isoform, or with tags, fused parts or gaps): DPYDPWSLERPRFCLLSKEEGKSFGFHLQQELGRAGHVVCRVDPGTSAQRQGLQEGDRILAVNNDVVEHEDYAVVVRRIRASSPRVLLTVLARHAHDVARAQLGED

GRIP1_7, Q9Y3R0 = molecular target: T4, GRIP1_7, Q9Y3R0
T4 sequence (Q9Y3R0 999-1096, limits assumed, looked up): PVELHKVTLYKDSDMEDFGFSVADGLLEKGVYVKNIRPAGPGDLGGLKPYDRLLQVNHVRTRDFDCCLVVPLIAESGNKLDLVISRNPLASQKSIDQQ

APBA1_1, Q02410 = molecular target: T5, APBA1_1, Q02410
T5 sequence (Q02410 651-752, limits assumed, looked up): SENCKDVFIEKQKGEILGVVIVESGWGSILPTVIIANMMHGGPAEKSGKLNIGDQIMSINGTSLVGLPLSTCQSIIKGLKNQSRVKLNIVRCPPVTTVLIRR

PARD3_3, Q8TEW0 = molecular target: PARD3_3, Q8TEW0
Chain of PARD3_3, Q8TEW0 (Q8TEW0 582-685): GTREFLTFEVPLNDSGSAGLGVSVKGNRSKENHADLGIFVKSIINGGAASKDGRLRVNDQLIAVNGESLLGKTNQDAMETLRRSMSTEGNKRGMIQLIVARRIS

AHNAK1, Q09666 = molecular target: AHNAK1, Q09666
Chain of AHNAK1, Q09666 (Q09666 4-100): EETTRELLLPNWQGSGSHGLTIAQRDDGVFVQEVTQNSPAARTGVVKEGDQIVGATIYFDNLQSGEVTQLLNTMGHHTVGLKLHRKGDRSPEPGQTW

MAGI2_5, Q86UL8 = molecular target: MAGI2_5, Q86UL8
Chain of MAGI2_5, Q86UL8 (Q86UL8 915-1017): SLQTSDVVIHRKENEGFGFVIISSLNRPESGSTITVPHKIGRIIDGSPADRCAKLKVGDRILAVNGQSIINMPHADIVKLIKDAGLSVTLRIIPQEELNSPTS

PDLIM1, O00151 = molecular target: PDLIM1, O00151
Chain of PDLIM1, O00151 (O00151 1-87): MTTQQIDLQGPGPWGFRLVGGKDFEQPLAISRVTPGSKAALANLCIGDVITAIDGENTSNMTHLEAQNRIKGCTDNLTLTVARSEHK

MAGI2_3, Q86UL8 = molecular target: MAGI2_3, Q86UL8
Chain of MAGI2_3, Q86UL8 (Q86UL8 600-682): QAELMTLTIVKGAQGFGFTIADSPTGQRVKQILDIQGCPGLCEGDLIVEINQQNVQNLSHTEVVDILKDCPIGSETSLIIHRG

MAGI3_2, Q5TCQ9 = molecular target: MAGI3_2, Q5TCQ9
Chain of MAGI3_2, Q5TCQ9 (Q5TCQ9 398-503): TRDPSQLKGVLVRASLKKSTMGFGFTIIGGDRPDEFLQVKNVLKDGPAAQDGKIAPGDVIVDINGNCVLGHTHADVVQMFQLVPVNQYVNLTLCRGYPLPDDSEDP

PTPN3, P26045 = molecular target: PTPN3, P26045
Chain of PTPN3, P26045 (P26045 505-587): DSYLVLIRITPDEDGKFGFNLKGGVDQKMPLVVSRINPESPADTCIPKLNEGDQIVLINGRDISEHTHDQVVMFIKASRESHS

GRIP1_2, Q9Y3R0 = molecular target: T6, GRIP1_2, Q9Y3R0
T6 sequence (Q9Y3R0 145-248, limits assumed, looked up): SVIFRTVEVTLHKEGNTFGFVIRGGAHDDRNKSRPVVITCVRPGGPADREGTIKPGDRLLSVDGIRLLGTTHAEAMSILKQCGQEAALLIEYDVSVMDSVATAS

Inadl_8, Q8NI35 = molecular target: Inadl_8, Q8NI35
Chain of Inadl_8, Q8NI35 (Q8NI35 1425-1530): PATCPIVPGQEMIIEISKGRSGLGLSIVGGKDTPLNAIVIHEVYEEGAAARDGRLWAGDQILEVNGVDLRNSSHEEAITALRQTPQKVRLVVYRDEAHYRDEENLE

NHERF2_2, Q15599 = molecular target: NHERF2_2, Q15599
Chain of NHERF2_2, Q15599 (Q15599 142-238): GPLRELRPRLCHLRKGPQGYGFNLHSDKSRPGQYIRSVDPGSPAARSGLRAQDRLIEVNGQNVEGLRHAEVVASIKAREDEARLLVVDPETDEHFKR

Inadl_1, Q8NI35 = molecular target: Inadl_1, Q8NI35
Chain of Inadl_1, Q8NI35 (Q8NI35 113-229): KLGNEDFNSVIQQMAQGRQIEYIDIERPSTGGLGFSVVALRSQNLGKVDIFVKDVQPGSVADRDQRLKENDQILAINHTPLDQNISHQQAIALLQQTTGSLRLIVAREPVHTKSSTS

MAST1, Q9Y2H9 = molecular target: MAST1, Q9Y2H9
Chain of MAST1, Q9Y2H9 (Q9Y2H9 962-1065): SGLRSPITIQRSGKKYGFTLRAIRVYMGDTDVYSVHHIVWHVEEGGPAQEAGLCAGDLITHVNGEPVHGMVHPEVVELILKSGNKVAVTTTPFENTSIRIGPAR

LNX1_1, Q8TBB1 = molecular target: LNX1_1, Q8TBB1
Chain of LNX1_1, Q8TBB1 (Q8TBB1 261-371): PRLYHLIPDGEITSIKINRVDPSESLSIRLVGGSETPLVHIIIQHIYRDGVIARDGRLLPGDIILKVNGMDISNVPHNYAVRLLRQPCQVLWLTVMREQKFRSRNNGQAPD

HTRA2, O43464 = molecular target: HTRA2, O43464
Chain of HTRA2, O43464 (O43464 355-458): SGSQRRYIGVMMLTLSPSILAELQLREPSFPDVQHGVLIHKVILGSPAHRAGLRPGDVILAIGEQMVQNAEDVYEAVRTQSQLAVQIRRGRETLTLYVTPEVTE

ARHGEF12, Q9NZN5-2 = molecular target: ARHGEF12, Q9NZN5-2
Chain of ARHGEF12, Q9NZN5-2 (Q9NZN5 other isoform, or with tags, fused parts or gaps): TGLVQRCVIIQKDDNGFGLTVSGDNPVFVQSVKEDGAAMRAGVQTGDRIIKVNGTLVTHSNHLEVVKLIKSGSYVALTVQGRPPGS

LIN7B, Q9HAP6 = molecular target: T7, LIN7B, Q9HAP6
T7 sequence (Q9HAP6 88-185, limits assumed, looked up): T3 sequence (Q9NUP9 88-185, limits assumed, looked up) with S2A, E13D, I35V, I40V, H65Q, K79S, K89R, S96A

MAST2, Q6P0Q8 = molecular target: MAST2, Q6P0Q8
Chain of MAST2, Q6P0Q8 (Q6P0Q8 1099-1202): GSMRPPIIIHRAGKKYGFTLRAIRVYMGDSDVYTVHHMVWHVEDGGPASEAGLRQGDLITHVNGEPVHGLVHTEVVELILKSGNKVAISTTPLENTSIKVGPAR

GORASP1, Q9BQQ3 = molecular target: GORASP1, Q9BQQ3
Chain of GORASP1, Q9BQQ3 (Q9BQQ3 1-208): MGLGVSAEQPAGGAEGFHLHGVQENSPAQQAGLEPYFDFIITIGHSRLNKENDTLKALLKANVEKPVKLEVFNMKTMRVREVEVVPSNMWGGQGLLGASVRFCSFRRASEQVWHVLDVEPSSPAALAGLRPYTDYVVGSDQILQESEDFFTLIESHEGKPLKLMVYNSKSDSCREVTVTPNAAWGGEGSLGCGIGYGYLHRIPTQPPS

SCRIB_1, Q14160 = molecular target: SCRIB_1, Q14160
Chain of SCRIB_1, Q14160 (Q14160 718-814): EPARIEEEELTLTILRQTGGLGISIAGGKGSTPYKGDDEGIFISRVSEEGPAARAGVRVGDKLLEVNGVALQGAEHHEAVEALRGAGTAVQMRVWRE

SCRIB_3, Q14160 = molecular target: SCRIB_3, Q14160
Chain of SCRIB_3, Q14160 (Q14160 999-1103): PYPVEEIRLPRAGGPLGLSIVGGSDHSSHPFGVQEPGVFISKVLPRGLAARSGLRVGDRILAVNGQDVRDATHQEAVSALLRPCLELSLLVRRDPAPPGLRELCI

CASK, O14936 = molecular target: CASK, O14936
Chain of CASK, O14936 (O14936 487-570): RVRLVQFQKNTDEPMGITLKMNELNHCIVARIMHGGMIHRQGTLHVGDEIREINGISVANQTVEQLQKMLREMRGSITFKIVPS

DLG3_3, Q92796 = molecular target: T8, DLG3_3, Q92796
T8 sequence (Q92796 374-475, limits assumed, looked up): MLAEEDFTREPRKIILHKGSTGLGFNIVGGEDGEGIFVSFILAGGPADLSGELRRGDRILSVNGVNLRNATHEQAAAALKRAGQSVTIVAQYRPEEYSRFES

SNX27, Q96L92 = molecular target: SNX27, Q96L92
TJP1_2, Q07157 = molecular target: TJP1_2, Q07157
Chain of TJP1_2, Q07157 (Q07157 181-274): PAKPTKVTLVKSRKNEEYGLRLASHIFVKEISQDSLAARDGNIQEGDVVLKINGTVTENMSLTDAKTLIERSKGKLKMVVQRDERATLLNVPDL

[1] = plain residues with an end cap or a label only (N-terminal biotin on a linker: ado-ado)
[2] = plain residues with an end cap or a label only (N-terminal biotin on a linker: gsgsgs; C-terminal amide)
[3] = plain residues with an end cap or a label only (N-terminal biotin on a linker: ttds)

EEPEERHTEL [CES2, O00748]
pKd (SNTG2, Q9NY99; [1]): below the threshold
pKd (SCRIB_2, Q14160; [1]): 3.79
pKd (TJP3_3, O95049; [1]): below the threshold
pKd (LIN7C, Q9NUP9; [1]): below the threshold
pKd (NHERF4_1, Q86UT5-2; [1]): 4.09
pKd (GRIP1_7, Q9Y3R0; [1]): below the threshold
pKd (APBA1_1, Q02410; [1]): below the threshold
pKd (PARD3_3, Q8TEW0; [1]): 3.61
pKd (AHNAK1, Q09666; [1]): below the threshold
pKd (MAGI2_5, Q86UL8; [1]): 4.4
pKd (PDLIM1, O00151; [1]): 3.59
pKd (MAGI2_3, Q86UL8; [1]): below the threshold
pKd (MAGI3_2, Q5TCQ9; [1]): below the threshold
pKd (PTPN3, P26045; [1]): 4.94
pKd (GRIP1_2, Q9Y3R0; [1]): below the threshold
pKd (Inadl_8, Q8NI35; [1]): below the threshold
pKd (NHERF2_2, Q15599; [1]): 4.63
pKd (Inadl_1, Q8NI35; [1]): below the threshold
pKd (MAST1, Q9Y2H9; [1]): 3.53
pKd (LNX1_1, Q8TBB1; [1]): 3.8
pKd (HTRA2, O43464; [1]): below the threshold
pKd (ARHGEF12, Q9NZN5-2; [1]): 5.03
pKd (LIN7B, Q9HAP6; [1]): 3.89
pKd (MAST2, Q6P0Q8; [1]): 5.44
pKd (GORASP1, Q9BQQ3; [1]): below the threshold
pKd (SCRIB_1, Q14160; [1]): 4.21
pKd (SCRIB_3, Q14160; [1]): 4.89
pKd (CASK, O14936; [1]): below the threshold
pKd (DLG3_3, Q92796; [1]): below the threshold
pKd (SNX27, Q96L92; [1]): 4.74
pKd (TJP1_2, Q07157; [1]): below the threshold

ELIQDTSTSFSTTREW [ARAP3_int, Q8WWN8]
pKd (SNTG2, Q9NY99; [2]): below the threshold
pKd (SCRIB_2, Q14160; [2]): below the threshold
pKd (TJP3_3, O95049; [2]): below the threshold
pKd (LIN7C, Q9NUP9; [2]): 4.11
pKd (NHERF4_1, Q86UT5-2; [2]): below the threshold
pKd (GRIP1_7, Q9Y3R0; [2]): below the threshold
pKd (APBA1_1, Q02410; [2]): below the threshold
pKd (PARD3_3, Q8TEW0; [2]): below the threshold
pKd (AHNAK1, Q09666; [2]): below the threshold
pKd (MAGI2_5, Q86UL8; [2]): below the threshold
pKd (PDLIM1, O00151; [2]): below the threshold
pKd (MAGI2_3, Q86UL8; [2]): 3.5
pKd (MAGI3_2, Q5TCQ9; [2]): below the threshold
pKd (PTPN3, P26045; [2]): 3.84
pKd (GRIP1_2, Q9Y3R0; [2]): below the threshold
pKd (Inadl_8, Q8NI35; [2]): below the threshold
pKd (NHERF2_2, Q15599; [2]): below the threshold
pKd (Inadl_1, Q8NI35; [2]): below the threshold
pKd (MAST1, Q9Y2H9; [2]): 3.49
pKd (LNX1_1, Q8TBB1; [2]): below the threshold
pKd (HTRA2, O43464; [2]): below the threshold
pKd (ARHGEF12, Q9NZN5-2; [2]): below the threshold
pKd (LIN7B, Q9HAP6; [2]): 3.67
pKd (MAST2, Q6P0Q8; [2]): below the threshold
pKd (GORASP1, Q9BQQ3; [2]): below the threshold
pKd (SCRIB_1, Q14160; [2]): below the threshold
pKd (SCRIB_3, Q14160; [2]): below the threshold
pKd (CASK, O14936; [2]): below the threshold
pKd (DLG3_3, Q92796; [2]): below the threshold
pKd (SNX27, Q96L92; [2]): below the threshold
pKd (TJP1_2, Q07157; [2]): below the threshold

GGPKEEESPV [SLC16A1, P53985]
pKd (SNTG2, Q9NY99; [3]): below the threshold
pKd (SCRIB_2, Q14160; [3]): below the threshold
pKd (TJP3_3, O95049; [3]): below the threshold
pKd (LIN7C, Q9NUP9; [3]): below the threshold
pKd (NHERF4_1, Q86UT5-2; [3]): below the threshold
pKd (GRIP1_7, Q9Y3R0; [3]): below the threshold
pKd (APBA1_1, Q02410; [3]): below the threshold
pKd (PARD3_3, Q8TEW0; [3]): below the threshold
pKd (AHNAK1, Q09666; [3]): below the threshold
pKd (MAGI2_5, Q86UL8; [3]): 3.62
pKd (PDLIM1, O00151; [3]): below the threshold
pKd (MAGI2_3, Q86UL8; [3]): below the threshold
pKd (MAGI3_2, Q5TCQ9; [3]): below the threshold
pKd (PTPN3, P26045; [3]): 4.25
pKd (GRIP1_2, Q9Y3R0; [3]): below the threshold
pKd (Inadl_8, Q8NI35; [3]): below the threshold
pKd (NHERF2_2, Q15599; [3]): below the threshold
pKd (Inadl_1, Q8NI35; [3]): below the threshold
pKd (MAST1, Q9Y2H9; [3]): below the threshold
pKd (LNX1_1, Q8TBB1; [3]): below the threshold
pKd (HTRA2, O43464; [3]): below the threshold
pKd (ARHGEF12, Q9NZN5-2; [3]): below the threshold
pKd (LIN7B, Q9HAP6; [3]): below the threshold
pKd (MAST2, Q6P0Q8; [3]): 4.3
pKd (GORASP1, Q9BQQ3; [3]): below the threshold
pKd (SCRIB_1, Q14160; [3]): 5.18
pKd (SCRIB_3, Q14160; [3]): below the threshold
pKd (CASK, O14936; [3]): below the threshold
pKd (DLG3_3, Q92796; [3]): below the threshold
pKd (SNX27, Q96L92; [3]): 5.27
pKd (TJP1_2, Q07157; [3]): below the threshold
